Reference: article PMC10873582

Tests used:
[1] = target: CmCalS1 of figleaf gourd (Cucurbita ficifolia (figleaf gourd))
[2] = target: CmCalS1 of 'Dongyangshenli' (Cucurbita moschata ('Dongyangshenli'))

Row | CmCalS1 enzyme activity in vitro with CmNAC100L1 added (CmNAC100L1 3.5 ng, CmCalS1 85 ng); 10.33 U L^-1 without CmNAC100L1 [1] | CmCalS1 enzyme activity in vitro with CmNAC100L1 added (CmNAC100L1 3.5 ng, CmCalS1 85 ng); 18.61 U L^-1 without CmNAC100L1 [2] | Substance
1 | 3.23 U L^-1 |  | CmNAC100L1 of figleaf gourd (natural protein)
2 |  | 47.8 U L^-1 | CmNAC100L1 of 'Dongyangshenli' (natural protein)
